Test results as given in patent US20200199206A1 (AC THERA, published 2020).

T1: EF-Biotin (B. anthracis, UniProt P40136 34-800)
T1 sequence: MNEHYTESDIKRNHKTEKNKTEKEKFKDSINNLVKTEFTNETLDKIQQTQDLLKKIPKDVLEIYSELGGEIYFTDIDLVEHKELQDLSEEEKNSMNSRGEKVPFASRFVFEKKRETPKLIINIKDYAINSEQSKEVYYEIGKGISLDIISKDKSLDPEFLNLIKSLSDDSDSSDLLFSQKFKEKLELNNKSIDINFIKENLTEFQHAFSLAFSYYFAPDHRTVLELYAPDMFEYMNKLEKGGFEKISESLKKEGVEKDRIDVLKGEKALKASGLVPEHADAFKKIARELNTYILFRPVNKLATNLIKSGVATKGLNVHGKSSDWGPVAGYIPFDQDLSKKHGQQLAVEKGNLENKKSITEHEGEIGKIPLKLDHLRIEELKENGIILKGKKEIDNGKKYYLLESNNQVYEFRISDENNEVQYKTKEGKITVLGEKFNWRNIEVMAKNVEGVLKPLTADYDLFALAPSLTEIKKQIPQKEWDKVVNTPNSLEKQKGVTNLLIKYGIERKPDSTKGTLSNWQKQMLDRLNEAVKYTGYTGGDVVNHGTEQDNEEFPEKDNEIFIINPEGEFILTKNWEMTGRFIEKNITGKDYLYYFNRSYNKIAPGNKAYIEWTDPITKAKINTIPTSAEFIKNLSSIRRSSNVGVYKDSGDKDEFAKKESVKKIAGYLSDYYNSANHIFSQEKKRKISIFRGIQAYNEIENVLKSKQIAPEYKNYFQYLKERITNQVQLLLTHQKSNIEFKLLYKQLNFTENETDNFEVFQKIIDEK

T2: LF-Biotin (B. anthracis, UniProt P15917 34-809)
T2 sequence: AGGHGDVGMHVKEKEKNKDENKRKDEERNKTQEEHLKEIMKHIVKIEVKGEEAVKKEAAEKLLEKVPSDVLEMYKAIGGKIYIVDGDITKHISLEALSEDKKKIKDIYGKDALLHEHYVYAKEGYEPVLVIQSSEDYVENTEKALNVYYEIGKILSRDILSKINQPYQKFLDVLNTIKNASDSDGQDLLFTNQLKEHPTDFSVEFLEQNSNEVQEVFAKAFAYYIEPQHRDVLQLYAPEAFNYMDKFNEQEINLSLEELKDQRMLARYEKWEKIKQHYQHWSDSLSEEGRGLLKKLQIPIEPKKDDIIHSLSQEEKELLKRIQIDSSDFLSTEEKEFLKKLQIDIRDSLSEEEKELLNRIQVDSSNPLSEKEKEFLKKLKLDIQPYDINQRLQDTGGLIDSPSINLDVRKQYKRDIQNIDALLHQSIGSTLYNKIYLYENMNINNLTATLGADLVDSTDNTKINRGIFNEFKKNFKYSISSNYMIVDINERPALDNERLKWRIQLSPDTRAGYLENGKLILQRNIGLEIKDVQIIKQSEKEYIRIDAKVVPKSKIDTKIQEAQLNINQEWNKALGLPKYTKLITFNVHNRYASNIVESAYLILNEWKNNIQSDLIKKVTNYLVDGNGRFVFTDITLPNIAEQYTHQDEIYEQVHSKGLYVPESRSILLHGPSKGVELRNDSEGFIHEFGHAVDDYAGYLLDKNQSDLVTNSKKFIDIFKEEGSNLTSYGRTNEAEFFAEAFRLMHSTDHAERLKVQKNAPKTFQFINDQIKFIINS

B1: clone 26 (VHH)
VHH: EVQLQASGGGFVQPGGSLRLSCAASGAYSARTTMGWFRQAPGKEREFVSAISAHEGQAPYYADSVKGRFTISRDNSKNTVYLQMNSLRAEDTATYYCATRAHEPKGMYWGQGTQVTVSS
B2: clone 49 (VHH)
VHH: EVQLQASGGGFVQPGGSLRLSCAASGGFFTSSTMGWFRQAPGKEREFVSAISRQHDNAPYYADSVKGRFTISRDNSKNMVYLQMNSLRAEDTATYYCAARNATHKGIYWGQGTQVTVSS
B3: clone 57 (VHH)
VHH: EVQLQASGGGFVQPGGSLRLSCAASGGTSFQTAMGWFRQAPGKEREFVSAISSRQGSHPYYADSVKGRFTISRDNSKNTVYLQMNSLRAEDTATYYCATRMTETRKMYWGQGTQVTVSS
B4: clone 60 (VHH)
VHH: EVQLQASGGGFVQPGGSLRLSCAASGSTFKHSAMGWFRQAPGKEREFVSAISSGPGMESYYADSVKGRFTISRDNSKNTVYLQMNSLRAEDTATYYCAGRAFPGQKMYWGQGTQVTVSS
B5: clone 44 (VHH)
VHH: EVQLQASGGGFVQPGGSLRLSCAASGFTSGSTAMGWFRQAPGKEREFVSAISRFENQGNYYADSVKGRFTISRDNSKNTVYLQMNSLRAEDTATYYCATRAVASSTMYWGQGTQVTVSS
B6: clone 66 (VHH)
VHH: EVQLQASGGGFVQPGGSLRLSCAASGTGSNASAMGWFRQAPGKEREFVSAISRHEGQPPYYADSVKGRFTISRDNSKNTVYLQMNSLRAEDTATYYCAMRYQSHIDIPGDSSPKLMYWGQGTQVTVSS
B7: clone 42 (VHH)
VHH: EVQLQASGGGFVQPGGSLRLSCAASGDGSFASAMGWFRQAPGKEREFVSAISAHAGGSPYYADSVKGRFTISRDNSKNTVYLQMNSLRAEDTATYYCAQRIGATRAMYWGQGTQVTVSS
B8: clone 41 (VHH)
VHH: EVQLQASGGGFVQPGGSLRLSCAASGDTWRTTAMGWFRQAPGKEREFVSAISGGDNRGTYYADSVKGRFTISRDNSKNTVYLQMNSLRAEDTATYYCAGRLNQNGPMYWGQGTQVTVSS
B9: clone 28 (VHH)
VHH: EVQLQASGGGFVQPGGSLRLSCAASGASYRGTSMGWFRQAPGKEREFVSAISFRPDQQPYYADSVKGRFTISRDNSKNTVYLQMNSLRAEDTATYYCAERRQHSRGLYWGQGTQVTVSS
B10: clone 40 (VHH)
VHH: EVQLQASGGGFVQPGGSLRLSCAASGRTFDGSAMGWFRQAPGKEREFVSAISASPSGESYYADSVKGRFTISRDNSKNTVYLQMNSLRAEDTATYYCAGRGRSQKSMYWGQGTQVTVSS
B11: clone 7 (VHH)
VHH: EVQLQASGGGFVQPGGSLRLSCAASGTSYANSDMGWFRQAPGKEREFVSAISGGDSAYYYYADSVKGRFTISRDNSKNTVYLQMNSLRAEDTATYYCATQQIGMREYYWGQGTQVTVSS
B12: clone 2 (VHH)
VHH: EVQLQASGGGFVQPGGSLRLSCAASGFFSNIEDMGWFRQAPGKEREFVSAISGYENESPYYADSVKGRFTISRDNSKNTVYLQMNSLRAEDTATYYCAAQSYHGKKGMTEYWGQGTQVTVSS
B13: clone 1 (VHH)
VHH: EVQLQASGGGFVQPGGSLRLSCAASGDTYRWDNMGWFRQAPGKEREFVSAISGLGNMDSYYADSVKGRFTISRDNSKNTVYLQMNSLRAEDTATYYCAQEEKWMSPQYWGQGTQVTVSS
B14: clone 4 (VHH)
VHH: EVQLQASGGGFVQPGGSLRLSCAASGRTFRIDTMGWFRQAPGKEREFVSAISFDTSHENYYADSVKGRFTISRDNSKNTVYLQMNSLRAEDTATYYCAPESMWFSIEYWGQGTQVTVSS
B15: clone 5 (VHH)
VHH: EVQLQASGGGFVQPGGSLRLSCAASGTTSFRDTMGWFRQAPGKEREFVSAISWNEGHAHYYADSVKGRFTISRDNSKNTVYLQMNSLRAEDTATYYCASEDMWFNHFYWGQGTQVTVSS
B16: clone 9 (VHH)
VHH: EVQLQASGGGFVQPGGSLRLSCAASGSYSAETDMGWFRQAPGKEREFVSAISGDPTTTTYYADSVKGRFTISRDNSKNTVYLQMNSLRAEDTATYYCAYQRLDNFEIYWGQGTQVTVSS
B17: clone 10 (VHH)
VHH: EVQLQASGGGFVQPGGSLRLSCAASGRTSWSEIMGWFRQAPGKEREFVSAISRYTDDYSYYADSVKGRFTISRDNSKNTVYLQMNSLRAEDTATYYCATYHYQYGGDQTFYWGQGTQVTVSS
B18: clone 8 (VHH)
VHH: EVQLQASGGGFVQPGGSLRLSCAASGSTSSHYDMGWFRQAPGKEREFVSAISYNHDHDTYYADSVKGRFTISRDNSKNTVYLQMNSLRAEDTATYYCAGATATTDGGYQEYWGQGTQVTVSS
B19: clone 6 (VHH)
VHH: EVQLQASGGGFVQPGGSLRLSCAASGTTYSSDTMGWFRQAPGKEREFVSAISGRQNWDRYYADSVKGRFTISRDNSKNTVYLQMNSLRAEDTATYYCAYWGHGTYEFDPKSMYWGQGTQVTVSS
B20: clone 3 (VHH)
VHH: EVQLQASGGGFVQPGGSLRLSCAASGSTSYSYNMGWFRQAPGKEREFVSAISRDGDWKNYYADSVKGRFTISRDNSKNTVYLQMNSLRAEDTATYYCAFEEHWMTPLYWGQGTQVTVSS

molecular target: T1, EF-Biotin; assay: not given

Binder | Phage ELISA Ag+/Ag-
B1 | 51.3 ratio
B2 | 36.7 ratio
B3 | 40.1 ratio
B4 | 43.6 ratio
B5 | 52.7 ratio
B6 | 51.8 ratio
B7 | 36.2 ratio
B8 | 36.7 ratio
B9 | 44.5 ratio
B10 | 31.5 ratio

molecular target: T2, LF-Biotin; assay: non-adsorbed phage ELISA, VHH on M13 phage, LF-Biotin vs His-SNAP-Halo-Biotin

Binder | Phage ELISA ratio signal LF/signal His-SNAP-Halo
B11 | 17 ratio
B12 | 36.5 ratio
B13 | 45.5 ratio
B14 | 34.6 ratio
B15 | 41.5 ratio
B16 | 38.1 ratio
B17 | 7.7 ratio
B18 | 30.2 ratio
B19 | 8.9 ratio
B20 | 47.2 ratio

molecular target: T1, EF-Biotin; assay: non-adsorbed VHH ELISA, IPTG-induced VHH-myc, EF-Biotin (Ag+) vs control (Ag-)

Binder | Phage IPTG Ag+/Ag-
B1 | 10.2 ratio
B2 | 3.6 ratio
B3 | 6.3 ratio
B4 | 4.9 ratio
B5 | 6.1 ratio
B6 | 5.8 ratio
B7 | 5 ratio
B8 | 5.7 ratio
B9 | 6.6 ratio
B10 | 6.2 ratio

molecular target: T2, LF-Biotin; assay: non-adsorbed VHH ELISA, IPTG-induced VHH-myc, LF-Biotin vs His-SNAP-Halo-Biotin

Binder | Induced ELISA ratio Signal LF/signal His-SNAP-Halo
B11 | 6.8 ratio
B12 | 5 ratio
B13 | 6.3 ratio
B14 | 9.2 ratio
B15 | 8 ratio
B16 | 4.6 ratio
B17 | 3.9 ratio
B18 | 5.5 ratio
B19 | 7.3 ratio
B20 | 6.3 ratio
